Test results as given in article PMC10917784.
“And” between values parts separate entries of the source, which are not always exact repeats. Identical values can stand only once. One block for each substance: values may come before it.

Assays:
SIRPα (Homo sapiens) = SIRPα (Homo sapiens) (UniProt P78324); conditions: cited from earlier work
[1] = target: ISB 1442 with a wild-type Fc (without Fc enhancing mutations) (human); experiment: SPR; antibody constructs captured on a Protein L Series S CM5 chip, FcRn flowed over; Biacore 8K+, 25 °C, pH 6.0; steady state affinity model; three replicates
[2] = target: ISB 1442, CD38 and CD47 bispecific biparatopic antibody (enhanced Fc) (human); experiment: as above
trastuzumab [3] = experiment: as above
[4] = target: ISB 1442, CD38 and CD47 bispecific biparatopic antibody (enhanced Fc) (human); experiment: SPR; antibody constructs captured on a Protein L Series S CM5 chip, Fc receptors flowed over; Biacore 8K+, 25 °C, neutral pH; 1:1 binding model (FcγRI and FcγRIIIa); three replicates
trastuzumab [5] = experiment: as above
ISB 1442 (human) [6] = experiment: SPR; antibody constructs immobilised on a Protein L Series S CM5 chip, increasing concentrations of FcRn flushed; Biacore 8K+, 25 °C, pH 6.0; steady state affinity model
[7] = target: ISB 1442 silenced Fc (human); experiment: as above
Trastuzumab [8] = experiment: SPR; antibody constructs immobilised on a Protein L Series S CM5 chip, increasing concentrations of Fc receptor flushed; Biacore 8K+, 25 °C, neutral pH; 1:1 binding model
ISB 1442 (human) [9] = experiment: as above
ISB 1442 WT Fc (human) = experiment: as above

Sequence of his-tagged human FcγRIIIa ECD (P08637 17-208): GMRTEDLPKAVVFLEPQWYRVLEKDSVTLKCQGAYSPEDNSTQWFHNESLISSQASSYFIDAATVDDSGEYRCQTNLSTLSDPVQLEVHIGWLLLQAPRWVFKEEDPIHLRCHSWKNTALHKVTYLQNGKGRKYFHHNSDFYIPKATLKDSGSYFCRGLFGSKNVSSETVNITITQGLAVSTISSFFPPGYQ
Sequence of human FcγRIIIa ECD (P08637 17-208): as above
Sequence of human FcγRI extracellular domain (ECD) (P12314 16-292): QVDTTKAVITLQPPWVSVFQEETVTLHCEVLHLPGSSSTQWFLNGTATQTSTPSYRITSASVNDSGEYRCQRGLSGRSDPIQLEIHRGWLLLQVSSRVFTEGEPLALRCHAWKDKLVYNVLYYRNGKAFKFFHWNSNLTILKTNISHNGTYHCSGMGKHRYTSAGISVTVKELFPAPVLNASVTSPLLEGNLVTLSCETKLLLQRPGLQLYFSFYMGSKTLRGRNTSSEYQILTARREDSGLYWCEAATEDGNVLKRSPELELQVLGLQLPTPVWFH

- Kd [1]: 236 nM
- Kd [2]: 129 nM and 189 nM
- Kd ([2]; mean): 181 nM
- Kd (trastuzumab [3]): 253 nM and 217 nM and 203 nM
Substance: his-tagged human FcRn ECD & β2 microglobulin (from UniProt P55899 24-297; P61769 21-119) (complex)

- Kd [4]: 13.2 nM and 12.6 nM and 13.8 nM
- Kd ([4]; mean): 13.2 nM
- Kd (trastuzumab [5]): 134 nM
Substance: his-tagged human FcγRIIIa ECD (from UniProt P08637 17-208) (receptor)

- Kd (Trastuzumab [8]): 0.21 nM
Substance: human FcγRI extracellular domain (ECD) (from UniProt P12314 16-292) (receptor)

The remaining lines, values behind:

Substance: CD47 (from UniProt Q08722)
- Kd (SIRPα (Homo sapiens)): 1000 nM

Substance: human FcRn ECD & β2 microglobulin (from UniProt P55899 24-297; P61769 21-119) (complex)
- Kd (ISB 1442 (human) [6]): 181 nM
- Kd [7]: 221 nM

Substance: human FcγRIIIa ECD (from UniProt P08637 17-208) (receptor)
- Kd (ISB 1442 (human) [9]): 13 nM
- Kd (ISB 1442 WT Fc (human)): 57 nM
